Measurements published in patent US20190055316A1.

How the values were obtained:
Native hu MSLN (cells) = Native hu MSLN (cells) (UniProt Q13421); assay: KinExA
Soluble human MSLN [1] = biological target: Soluble human MSLN (UniProt Q13421); assay: Biacore
Soluble human MSLN [2] = biological target: Soluble human MSLN (UniProt Q13421); assay: Biacore; published value

Soluble human MSLN, sequence (Q13421 296-606): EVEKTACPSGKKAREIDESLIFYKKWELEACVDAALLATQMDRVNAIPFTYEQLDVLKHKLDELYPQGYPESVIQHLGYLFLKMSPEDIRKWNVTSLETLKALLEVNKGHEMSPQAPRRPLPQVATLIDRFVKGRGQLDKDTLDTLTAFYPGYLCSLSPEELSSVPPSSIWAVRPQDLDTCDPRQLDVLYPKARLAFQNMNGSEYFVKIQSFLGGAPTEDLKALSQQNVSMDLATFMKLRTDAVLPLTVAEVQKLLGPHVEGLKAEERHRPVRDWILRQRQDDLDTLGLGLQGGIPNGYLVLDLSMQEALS
Native hu MSLN (cells), sequence (Q13421 296-606): as above

Kd (Native hu MSLN (cells)): 2.2 pM
Kd (Soluble human MSLN [1]): 160 pM
Kd (Soluble human MSLN [2]): 1500 pM
Substance: Morab-009 (ssI CDRs)
